B1: TPR 5TU (parent)
chain: GGAUCUUCUCGAUCUAACAAAAAAGACAAAUCUGCCACAAAGCUUGAGAGCAUCUUCGGAUGCAGAGGCGGCAGCCUUCGGUGGCGCGAUAGCGCCAACGUUCUCAACUAUGACACGCAAAACGCGUGCUCCGUUGAAUGGAGUUUAUCAUG

From the RNAGym collection of RNA variant scans (doi:10.1073/pnas.2313332121) come the findings set out here.

Fewer inactive variants are shown than the library holds.

Variants of B1 are the subject of this series. Put plainly: polymerase ribozyme fitness, log enrichment relative to wild type (log ratio); higher = more active; in vitro selection for triplet polymerase activity. The essentials: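 A single round of triplicate in vitro selection, including frozen incubation at −7 °C, was applied to PCR-built, transcribed mutant libraries of each subunit of a heterodimeric triplet polymerase ribozyme. Illumina sequencing of input and output libraries retained genotypes with ≥10 input reads and ≥1 read per output. Fitness is the base-2 logarithm of genotype enrichment divided by wild-type enrichment, from inverse-variance-weighted replicate averages.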
GGAUCUUCUCGAUCUAACAAAAAAGACAAAUCUGCCACAAAGCUUGAGAGCAUAUUCGGAUGCAGAGGCGGCAGCCUUCGGUGGCGCGAUAGCUCCAACGUUCUUAACUAUGACACGCAAAACGCGUGCUCCGUUGAAUGGAGUUUAUCAUG: the “polymerase ribozyme fitness (log ratio)” value was -2.47.
With GGAUCUUCUCGAUCUAACAAAAAAGACAAAUCUGCCACAAAGCUUGAGAGCAUAUUCGGAUGCAGAGGCGGCAGCCUUCGGUGGCGCGAUAGCGCCAACGUACUCAACUAUGACACGCAAAACGCGUGCUCCGUUGAAUGGAGUUUAUCAUG the figure was -2.71; with GGAUCUUCUCGAUCUAACAAAAAAGACAAAUCUGCCACAAAGCUUGAGAGCAUAUUCGGAUGCAGAGGCGGCAGCCUUCGGUGGCUCGAUAGCGCCAACGUUCUCAACUCUGACACGCAAAACGCGUGCUCCGUUGAAUGGAGUUUAUCAUG, ≤ -4.2.
With GGAUCUUCUCGAUCUAACAAAAAAGACAAAUCUGCCACAAAGCUUGAGAGCAUAAUCGGAUGCAGAGGCGGCAGCCGUCGGUGGCGCGAUAGCGCCAACGUUCUCAACUAUGACACGCAACACGCGUGCUCCGUUGUAUGGAGUUUAUCAUG, the “polymerase ribozyme fitness (log ratio)” value was ≤ -4.2.
On to GGAUCUUCUCGAUCUAACAAAAAAGACAAAUCUGCCACAAAGCUUGAGAGCAUAUUCGGAUGCAGAGGCGGCAGCCUUCGGUGGCGCGAUAGCGCCAACGGUCUCAAUUAUGACUCUCAAAACGCGUGUUCCAUUGAAUGGAGUUUAUCAUG, for which the “polymerase ribozyme fitness (log ratio)” value was ≤ -4.2.
GGAUCUUCUCGAUCUAACAAAAAAGACAAAUCUGCCACAAAGCUUGAGAGCAUAUUCGGAUGCAGAGGCGGCAGCCUUCGGUGGCGCGAUAACGCCAACGUUCUCAACUAUGACACGCAAAACGCGUGCUCCGUUGAAUGGAGUUUAUCAUG: the “polymerase ribozyme fitness (log ratio)” value was ≤ -4.2.
The same measure for GGAUCUUCUCGAUCUAACAAAAAAGACAAAUCUGCCACAAAGCUUGAGAGCAUAUGCGGAUGCAGAGGCGGCAGCCUUCGGUGGCGCGAUAGCGACAACGUUCUCAACUAUGACACGCAGAACGCGUGCUCCGUUGAAUGGAGUUUAUCAUG: -1.33; for GGAUCUUCUCGAUCUAACAAAAAAGACAAAUCUGCCACAAAGCUUGAGAGCAUAGUCGGAUGCAGAGGCGGCAGCCUUCGGUGGCGCGAUAGCGCCAACGUUCUCAUCCAUGACACAUAACACGCGUGCUCCGUUGAAUGGAGUUUAUCAUG: ≤ -4.2; for GGAUCUUCUCGAUCUAACAAAAAAGACAAAUCUGCCACAAAGCUUGAGAGCAUAUACGGAUGCAGAGGCGGCAGCCUUCGGUGGCGCGAUAGAGCCAUCGUUCUCAACUAUGACACGCAAAACGCGUGCUCCGUUGACUGGAGUUUAUCAGG: ≤ -4.2.
GGAUCUUCUCGAUCUAACAAAAAAGACAAAUCUGCCACAAAGCUUGAGAGCAUAUUCGGAAGCAGAGGCGGCAGCCUUCGGUGGCGCGAUAGGGCCAACGUUCUCAACUAUGACACGCAAAACGCGUGCUCCGUUGAAUGGAGUUUAUGAUG: the “polymerase ribozyme fitness (log ratio)” value was ≤ -4.2.
The same measure for GGAUCUUCUCGAUCUAACAAAAAAGACAAAUCUGCCACAAAGCUUGAGAGCAUAUGCGGAUGCAGAGGCGGCAGCCUGCGGGGGCGCGAUAGCGCCAACGUUCUCAACUAUGAAACGCAAAACGCGUGCUCCGUUGAAUGGAGCUUAUCAUG: ≤ -4.2.
The same measure for GGAUCUUCUCGAUCUAACAAAAAAGACAAAUCUGCCACAAAGCUUGAGAGCAUAUUCGGAUGCAGAGGCAGCAGCCUUCGGUGGCGCGAUAGCGUCAACGUUCUCAACUAUGACACGCAGAACGCGUGCUCCGUUGAAUGGAGUUUAUCAUG: -3.62; for GGAUCUUCUCGAUCUAACAAAAAAGACAAAUCUGCCACAAAGCUUGAGAGCAUAUUCGGAUGCAGAGGCGGCAGCCUUCGGUUGCGCGAUAGCGCCAACGUUCUCAACUAUGACACGCAAAACGCGUGCUCCGUUGAAUGGAGUUUAUCAUG: -1.19.
With GGAUCUUCUCGAUCUAACAAAAAAGACAAAUCUGCCACAAAGCUUGAGAGCAUAUACGGAUGCAGAGGCGGCAGCCUUCGGUGGGGCGAUAGCGCCAACGCUCUCAACUAUGACACGCAAAACGCGUGCUCCGAUGAAUGGAGUUUACCAUG the figure was ≤ -4.2; with GGAUCUUCUCGAUCUAACAAAAAAGACAAAUCUGCCACAAAGCUUGAGAGCAUAUACGGAUGCAGAGGCGGCAGCCUUCGGUGGCGCGAUAGCGCCAACGUUCUCAACUAUGACACGCAAAACGCGUGCUCCGUUGAAUGGAGUUUAUCAUG, -1.31; with GGAUCUUCUCGAUCUAACAAAAAAGACAAAUCUGCCACAAAGCUUGAGAGCAUAUUCGGAUGCAGAGGCGGCAGCCUUCGGCGGCGCGAUAGCGCCAACGUUCUCAACUAUGACACGCAAAACGCGUGCUCCGUUGAAUGGAGUUCAUCAUG, -0.537.
Take GGAUCUUCUCGAUCUAACAAAAAAGACAAAUCUGCCACAAAGCUUGAGAGCAUAAUCGGAUGCAGAGGCGGCAGCCUUCGGUGGCGCGAUAGCGCCAACGUUCUCAACUAUGACACGCAAAACGCGUGCUCCGUUGAAUGGAGUUUAUCAUG: the “polymerase ribozyme fitness (log ratio)” value is -1.91.
With GGAUCUUCUCGAUCUAACAAAAAAGACAAAUCUGCCACAAAGCUUGAGAGCAUAUUCGGAUGCAGAGGCCGCAGCCUUCGGUGGCGCAAUAGGGCCAACGUUCUCAACUAUGACACGCAAAACGCGUGCUCCGAUGAAUGGAGUUAAUCAUG the figure was ≤ -4.2; with GGAUCUUCUCGAUCUAACAAAAAAGACAAAUCUGCCACAAAGCUUGAGAGCAUAUUCGGAUGCAGAGGCGGCAGCCUUCGGUGGCGCGAUAGCCCCAACGUUCUCAACUAUGACACGCAAAACGCGUGCUCCGUUGAAUGAAGUUUAUCAUG, -3.13.
